The results in this text go back to publication PMC8113585.

The target of this series is SARS-CoV-2 nucleocapsid (N) protein, full-length;mAb nCoV396 (human IgG1) (SARS-CoV-2;Homo sapiens) (UniProt P0DTC9). Nature of the series: EMSA.

Sequence AAGUUCGUUU [TRS RNA] had a Kd of 15.1 µM. That is a double-digit micromolar value.
